Data on three molecules can be found in article PMC9633773, “Discovering cell-active BCL6 inhibitors: effectively combining biochemical HTS with multiple biophysical techniques, X-ray crystallography and cell-based assays” (Scientific Reports, 2022).

Ends that are not written are not given here.

Common to all, as to conditions: both partners purified
Series [1] deals with T1, BCL6 BTB domain (BCL6 5-129, tag removed by HRV-3C protease) (human, UniProt P41182 5-129). In words: fluorescence polarisation; competition: 10 nM BCOR-AF633, 3 µM BCL6 BTB, unlabelled peptide varied; 20 mM Hepes/NaOH pH 8.0, 150 mM NaCl, 0.5 mM TCEP, 0.05% Tween 20, 1-2% DMSO; 2 h at room temperature. In general terms: Polarisation of emitted light reports the rotation of a fluorescent probe.

For series [2], the target named is T2, BCL6 BTB domain (BCL6 5-129, tag removed by HRV-3C protease) (human, UniProt P41182 5-129). The series is described as follows: thermal shift assay; 10 µM BCL6 BTB, Sypro Orange, sodium acetate pH 6, 100 mM NaCl, 0.5 mM TCEP; 200 µM BCOR control peptide.
The target in series [3] is T2, BCL6 BTB domain (BCL6 5-129, tag …). In words: fluorescence polarisation; competition: 10 nM BCOR-AF633, 3 µM BCL6 BTB, unlabelled peptide varied; 20 mM Hepes/NaOH pH 8.0, 150 mM NaCl, 0.5 mM TCEP, 0.05% Tween 20, 1-2% DMSO; 2 h at room temperature. This is another data set of the same source.
For series [4], the target named is T1, BCL6 BTB domain (BCL6 5-129, tag …). The series is described as follows: fluorescence polarisation; direct binding of the BCOR-AF633 probe to BCL6 BTB, FP KD (Figure S1A).
For series [5], the target named is Trx-6His-HRV3C-BCL6 (Thioredoxin-6His-tagged BCL6 BTB, uncleaved) (human, UniProt P41182 5-129). The series is described as above.

B1: SMRT peptide (EGLVATVKEAGRSIHEIPR) (peptide)
peptide: EGLVATVKEAGRSIHEIPR
notes: also called SMRT control peptide; unlabelled SMRT peptide; source: synthetic peptide, bought: Pepceuticals Ltd
As for B1, the IC50 (usually the concentration that gives 50% inhibition) in series [1] is 16 ± 6 µM.

B2: unlabelled BCOR peptide (17 residue BCOR peptide) (peptide)
chain: RSEIISTAPSSWVVPGP
modifications: Terminal capping of the unlabelled peptide is not printed. Limits come from the UniProt BCL6-interaction region 498-514, which is 17 residues and matches the printed probe RSEIISTAPSSWVVPGP without …
As for B2, the “ΔTm with 200 µM peptide” value in series [2] is 6.5 °C. The molecule also returned an IC50 in series [3] of 13 ± 1 µM.

B3: Alexa Fluor 633-conjugated BCOR peptide (RSEIISTAPSSWVVPGP-Cys(AF633)-amide) (peptide)
peptide: RSEIISTAPSSWVVPGPC(Alexa Fluor 633 C5 maleimide)-NH2
notes: added C-terminal cysteine that carries the dye; also called BCOR-AF633; BCOR-A633; source: synthetic peptide, bought: Cambridge Research Biochemicals
In the case of B3, the Kd – broadly, the constant that tells how readily two partners part at equilibrium – was determined as 1.7 ± 0.3 µM in series [4] and 1.74 µM in series [5].
